This note sets out measurements from patent US20240115720A1 (published 2024).

Read-outs that look alike come from different tables or passages of the source.

Assay in all cases: BLI (Octet HTX)
In assay [1] the target is T1, Recombinant Human DLL3 Protein (amino acids Ala27-Ala479, cat #9749-DL, R&D Systems) (UniProt Q9NYJ7 27-479).
T1 chain: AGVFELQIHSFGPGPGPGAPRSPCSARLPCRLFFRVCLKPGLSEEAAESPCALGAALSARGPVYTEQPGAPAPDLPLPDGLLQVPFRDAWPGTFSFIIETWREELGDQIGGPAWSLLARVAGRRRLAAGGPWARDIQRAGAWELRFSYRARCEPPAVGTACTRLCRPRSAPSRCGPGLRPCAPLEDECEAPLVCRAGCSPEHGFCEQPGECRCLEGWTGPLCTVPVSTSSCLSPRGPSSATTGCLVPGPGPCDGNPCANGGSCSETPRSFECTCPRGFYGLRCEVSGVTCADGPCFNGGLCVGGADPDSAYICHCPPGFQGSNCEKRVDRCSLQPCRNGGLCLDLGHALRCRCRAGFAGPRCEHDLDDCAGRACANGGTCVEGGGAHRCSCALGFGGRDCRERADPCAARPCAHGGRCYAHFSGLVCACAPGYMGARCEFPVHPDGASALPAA

Assay [2] concerns the target T1, Recombinant Human DLL3 Protein (amino …).
Assay [3] shares this target.

B1: 2-C8-A (antibody, V domains shown)
VH: EVQLVESGGGLVQPGGSQRLSCAASGFTFSSYWMNWVRQAPGKGLEWVANIKEDGSEKYYVDSVKGRFTISRDNAKNSLYLQMNSLRAEDTAVYYCARDPGWAPFDYWGQGTLVTVSS
VL: DIQMSQSPSSLSASVGDRVTITCRASQGISNYLAWFQQKPGKAPKSLIYAASSLQSGVPSKFSGSGSGTDFTLAISSLQPEDFATYYCQQYNSFPYTFGQGTTLEIK
In general, Kd refers to a measure of binding affinity in units of concentration. As for B1, the Kd in assay [1] and in assay [2] was 0.668 nM throughout.

B2: 10-O18-A (antibody, V domains shown)
VH: QVQLQESGPGLVKPSETLSLTCTVSGGSINSYYWSWIRQPPGKGLEWIGYIFYSGITNYNPSLKSRVTISLDTSKNQFSLKLSSVTAADTAVYYCARIGVAGFYFDYWGQGTLVTVSS
VL: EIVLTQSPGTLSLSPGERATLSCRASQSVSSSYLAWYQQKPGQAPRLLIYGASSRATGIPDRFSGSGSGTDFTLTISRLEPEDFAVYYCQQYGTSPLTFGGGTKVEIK
For B2, the Kd is 0.602 nM in assay [1] and 0.62 nM in assay [2].

B3: 7-I1-B (antibody, V domains shown)
VH: EVQLVESGGGLVKPGGSLRLSCAASGFTFSNTWMSWVRQAPGKGLEWVGRIKSKSDGGTTDYAAPVKGRFTISRDDSKNTLYLQMNSLKTEDTAVYYCTQYYWNSFDYWGQGTLVTVSS
VL: not shown
For the molecule B3, the equilibrium dissociation constant (Kd) was determined as 0.68 nM in assay [2] and 0.686 nM in assay [3].

B4: 6-G23-F (antibody, V domains shown)
VH: QVQLVQSGAEVKKPGASVKVSCKASGYTFTSYYIHWVRQAPGQGLEWMGIIDPSDGSTNYAQKFQGRVTMTRDTSTSTVYMELSSLRSEDTAVYYCARDREYNYYGLDVWGQGTTVTVSS
VL: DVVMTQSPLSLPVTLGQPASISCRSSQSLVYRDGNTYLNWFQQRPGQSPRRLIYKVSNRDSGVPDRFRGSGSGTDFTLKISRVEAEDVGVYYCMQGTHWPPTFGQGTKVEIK
Consider B4, for which the Kd in assay [2] and in assay [3] was 0.16 nM each time.
